Measurements as given in patent US20210301000A1.

How the values were obtained:
[1] = biological target: (DN-(I+II+III+IV)-NS) antigen (self-produced, expressed in insects) (dengue virus); test: capture ELISA, antibody at 333.333 ng/ml
[2] = biological target: (DN-(I+II+III+IV)-NS) antigen (self-produced, expressed in insects) (dengue virus); test: capture ELISA, antibody at 111.111 ng/ml
[3] = biological target: (DN-(I+II+III+IV)-NS) antigen (self-produced, expressed in insects) (dengue virus); test: capture ELISA, antibody at 1000 ng/ml
[4] = biological target: DN quality control product recombinant protein (a recombinant antigen produced by the company itself) (dengue virus); test: AMO sensor, antibody on sensor, antigen in solution
[5] = biological target: (DN-(I+II+III+IV)-NS) antigen (self-produced, expressed in insects) (dengue virus); test: capture ELISA, antibody at 0 ng/ml (blank)
[6] = biological target: (DN-(I+II+III+IV)-NS) antigen (self-produced, expressed in insects) (dengue virus); test: capture ELISA, antibody at 12.346 ng/ml
[7] = biological target: (DN-(I+II+III+IV)-NS) antigen (self-produced, expressed in insects) (dengue virus); test: capture ELISA, antibody at 4.115 ng/ml
[8] = biological target: (DN-(I+II+III+IV)-NS) antigen (self-produced, expressed in insects) (dengue virus); test: capture ELISA, antibody at 37.037 ng/ml
[9] = biological target: (DN-(I+II+III+IV)-NS) antigen (self-produced, expressed in insects) (dengue virus); test: capture ELISA, antibody at 1.372 ng/ml

Row | Binder | Kd [4] [nM] | koff [4] [s⁻¹] | kon [4] [M⁻¹ s⁻¹] | also measured
1 | Mutation 3 (antibody, V domains shown) VH: QVQLQQSGAELVRPGTSVKISCKASGYTFTDYWIGWVKQRPGHGLEWIGDMWPGDLYINYQEKFKGKATLTADTSSNTAYMQLSSLTSEDSAVYFCTNFITVGGLDYWGRGTSLTVSS VL: DVVMTQTPLTLSVTIGQPASISCKSSQSLLSSDGRTYLNWLLQRPGQSPKRLIYLVTKVDSGVPDRFTGSGSVTDFTLKISRVESEDLGVYYCWQGTHFFHTFGAGTKLEVKR | – | – | – | OD450 (ref 630) [1]: 0.347 OD; OD450 (ref 630) [2]: 0.056 OD; OD450 (ref 630) [3]: 0.847 OD
2 | recombinant anti-dengue virus NS1 11E2 antibody (WT) (antibody, mouse IgG2a, kappa, V domains shown) VH: QVQLQQSGAELVRPGTSVKISCKASGYSFTDYWIGWVKQRPGHGLEWIGDMVPGDLYINYQEKFKGKATLTADTSSNTAYMQLSSLTSEDSAVYFCTNFITVGGLDYWGRGTSLTVSS VL: DVVMTQTPLTLSVTIGQPASISCKSSNSLLDSDGKTYLNWLLQRPGQSPKRLIYLVTKIDSGVPDRFTGSGSVTDFTLKISRVESEDLGVYYCWWGTHFPHTFGAGTKLEVKR | 58.8 | 0.000398 | 6770 | OD450 (ref 630) [1]: 2.38 OD; OD450 (ref 630) [2]: 2.2 OD; OD450 (ref 630) [5]: 0.163 OD; OD450 (ref 630) [6]: 0.838 OD; OD450 (ref 630) [7]: 0.448 OD; OD450 (ref 630) [8]: 1.66 OD; OD450 (ref 630) [9]: 0.297 OD; OD450 (ref 630) [3]: 2.32 OD
3 | WT 1-7 (antibody, V domains shown) VH: QVQLQQSGAELVRPGTSVKISCKASGYSFTEYWIGWVKQRPGHGLEWIGDMVPGDLYINYQEKFKGKATLTADTSSNTAYMQLSSLTSEDSAVYFCTNFITVGGVDYWGRGTSLTVSS VL: DVVMTQTPLTLSVTIGQPASISCKSSQSLLESDGKTYLNWLLQRPGQSPKRLIYLVTKIDSGVPDRFTGSGSVTDFTLKISRVESEDLGVYYCWYGTHFAHTFGAGTKLEVKR | 65.5 | 0.000231 | 3530 | –
4 | Mutation 1-19 (antibody, V domains shown) VH: QVQLQQSGAELVRPGTSVKISCKASGYTFTEYWIGWVKQRPGHGLEWIGDMFPGDIYINYNEKFKGKATLTADTSSNTAYMQLSSLTSEDSAVYFCTNFITLGGIDYWGRGTSLTVSS VL: DVVMTQTPLTLSVTIGQPASISCKSSNSLLDSDGRTYLNWLLQRPGQSPKRLIYLVSKIDSGVPDRFTGSGSVTDFTLKISRVESEDLGVYYCWYGTHFPHTFGAGTKLEVKR | 4.72 | 0.000279 | 59200 | –
5 | Mutation 1-25 (antibody, V domains shown) VH: QVQLQQSGAELVRPGTSVKISCKASGYTFTEYWIGWVKQRPGHGLEWIGDMFPGDVYINYQEKFKGKATLTADTSSNTAYMQLSSLTSEDSAVYFCTNFLTLGGLDYWGRGTSLTVSS VL: DVVMTQTPLTLSVTIGQPASISCKSSNSLLDSDGRTYLNWLLQRPGQSPKRLIYLVSKIDSGVPDRFTGSGSVTDFTLKISRVESEDLGVYYCWYGTHFPHTFGAGTKLEVKR | 6.04 | 0.000273 | 45100 | –
6 | WT 1-1 (antibody, V domains shown) VH: QVQLQQSGAELVRPGTSVKISCKASGYSFTEYWIGWVKQRPGHGLEWIGDMVPGDLYINYNEKFKGKATLTADTSSNTAYMQLSSLTSEDSAVYFCTNFITVGGVDYWGRGTSLTVSS VL: DVVMTQTPLTLSVTIGQPASISCKSSQSLLESDGKTYLNWLLQRPGQSPKRLIYLVTKIDSGVPDRFTGSGSVTDFTLKISRVESEDLGVYYCWYGTHFAHTFGAGTKLEVKR | 12.8 | 5.86e-05 | 4570 | –
7 | WT 1-20 (antibody, V domains shown) VH: QVQLQQSGAELVRPGTSVKISCKASGYSFTDYWIGWVKQRPGHGLEWIGDMVPGDIYINYQEKFKGKATLTADTSSNTAYMQLSSLTSEDSAVYFCTNFITVGGLDYWGRGTSLTVSS VL: DVVMTQTPLTLSVTIGQPASISCKSSQSLLESDGRTYLNWLLQRPGQSPKRLIYLVTKLDSGVPDRFTGSGSVTDFTLKISRVESEDLGVYYCWWGTHFAHTFGAGTKLEVKR | 45.9 | 0.000143 | 3120 | –
8 | WT 1-4 (antibody, V domains shown) VH: QVQLQQSGAELVRPGTSVKISCKASGYSFTDYWIGWVKQRPGHGLEWIGDMVPGDIYINYQEKFKGKATLTADTSSNTAYMQLSSLTSEDSAVYFCTNFLTVGGVDYWGRGTSLTVSS VL: DVVMTQTPLTLSVTIGQPASISCKSSQSLLESDGRTYLNWLLQRPGQSPKRLIYLVTKIDSGVPDRFTGSGSVTDFTLKISRVESEDLGVYYCWYGTHFAHTFGAGTKLEVKR | 28 | 0.000142 | 5080 | –
9 | WT 1-30 (antibody, V domains shown) VH: QVQLQQSGAELVRPGTSVKISCKASGYSFTEYWIGWVKQRPGHGLEWIGDMVPGDLYINYNEKFKGKATLTADTSSNTAYMQLSSLTSEDSAVYFCTNFLTVGGVDYWGRGTSLTVSS VL: DVVMTQTPLTLSVTIGQPASISCKSSNSLLESDGKTYLNWLLQRPGQSPKRLIYLVTKIDSGVPDRFTGSGSVTDFTLKISRVESEDLGVYYCWWGTHFAHTFGAGTKLEVKR | 20.4 | 0.000149 | 7280 | –
10 | Mutation 1-40 (antibody, V domains shown) VH: QVQLQQSGAELVRPGTSVKISCKASGYTFTDYWIGWVKQRPGHGLEWIGDMFPGDVYINYQEKFKGKATLTADTSSNTAYMQLSSLTSEDSAVYFCTNFITLGGIDYWGRGTSLTVSS VL: DVVMTQTPLTLSVTIGQPASISCKSSNSLLDSDGRTYLNWLLQRPGQSPKRLIYLVSKIDSGVPDRFTGSGSVTDFTLKISRVESEDLGVYYCWYGTHFPHTFGAGTKLEVKR | 4.05 | 0.000171 | 42300 | –
11 | Mutation 1-28 (antibody, V domains shown) VH: QVQLQQSGAELVRPGTSVKISCKASGYTFTDYWIGWVKQRPGHGLEWIGDMFPGDIYINYNEKFKGKATLTADTSSNTAYMQLSSLTSEDSAVYFCTNFITLGGIDYWGRGTSLTVSS VL: DVVMTQTPLTLSVTIGQPASISCKSSNSLLDSDGRTYLNWLLQRPGQSPKRLIYLVSKIDSGVPDRFTGSGSVTDFTLKISRVESEDLGVYYCWYGTHFPHTFGAGTKLEVKR | 6.59 | 0.000337 | 51200 | –
12 | Mutation 1-46 (antibody, V domains shown) VH: QVQLQQSGAELVRPGTSVKISCKASGYTFTEYWIGWVKQRPGHGLEWIGDMFPGDIYINYNEKFKGKATLTADTSSNTAYMQLSSLTSEDSAVYFCTNFITLGGIDYWGRGTSLTVSS VL: DVVMTQTPLTLSVTIGQPASISCKSSNSLLDSDGRTYLNWLLQRPGQSPKRLIYLVSKVDSGVPDRFTGSGSVTDFTLKISRVESEDLGVYYCWYGTHFPHTFGAGTKLEVKR | 8 | 0.000479 | 59900 | –
